Assay [1] has as its target T1, rabbit skeletal muscle actin, pyrene-labelled, phalloidin-stabilized (rabbit, UniProt P68135 1-377, pyrene (labelled with pyrene-maleimide)). Nature of the assay: other fluorescence titration.
Assay [2] addresses T1, rabbit skeletal muscle actin, …. Nature of the assay: other fluorescence titration. This is another data set of the same source.

Like-named read-outs stand apart in the source and are kept apart here.

Drawing on paper PMC4646805 (Science Advances, 2015), this text covers Kd for two molecules.

B1: wild-type human β-cardiac myosin short subfragment 1 (sS1) with C-terminal 6× His tag (complex)
chain 1: MGDSEMAVFGAAAPYLRKSEKERLEAQTRPFDLKKDVFVPDDKQEFVKAKIVSREGGKVTAETEYGKTVTVKEDQVMQQNPPKFDKIEDMAMLTFLHEPAVLYNLKDRYGSWMIYTYSGLFCVTVNPYKWLPVYTPEVVAAYRGKKRSEAPPHIFSISDNAYQYMLTDRENQSILITGESGAGKTVNTKRVIQYFAVIAAIGDRSKKDQSPGKGTLEDQIIQANPALEAFGNAKTVRNDNSSRFGKFIRIHFGATGKLASADIETYLLEKSRVIFQLKAERDYHIFYQILSNKKPELLDMLLITNNPYDYAFISQGETTVASIDDAEELMATDNAFDVLGFTSEEKNSMYKLTGAIMHFGNMKFKLKQREEQAEPDGTEEADKSAYLMGLNSADLLKGLCHPRVKVGNEYVTKGQNVQQVIYATGALAKAVYERMFNWMVTRINATLETKQPRQYFIGVLDIAGFEIFDFNSFEQLCINFTNEKLQQFFNHHMFVLEQEEYKKEGIEWTFIDFGMDLQACIDLIEKPMGIMSILEEECMFPKATDMTFKAKLFDNHLGKSANFQKPRNIKGKPEAHFSLIHYAGIVDYNIIGWLQKNKDPLNETVVGLYQKSSLKLLSTLFANYAGADAPIEKGKGKAKKGSSFQTVSALHRENLNKLMTNLRSTHPHFVRCIIPNETKSPGVMDNPLVMHQLRCNGVLEGIRICRKGFPNRILYGDFRQRYRILNPAAIPEGQFIDSRKGAEKLLSSLDIDHNQYKFGHTKVFFKAGLLGLLEEMRDERLSRIITRIQAQSRGVLARMEYKKLLERR
chain 2: not shown
By Kd is commonly meant the equilibrium constant for the complex coming apart. Higher therefore signals a looser complex. Consider B1, for which the Kd in assay [1] was found to be 23.4 ± 2.5 nM; in assay [2], 10 ± 1.8 nM.

B2: R403Q human β-cardiac myosin short subfragment 1 (sS1) with C-terminal 6× His tag (complex)
chain 1: MGDSEMAVFGAAAPYLRKSEKERLEAQTRPFDLKKDVFVPDDKQEFVKAKIVSREGGKVTAETEYGKTVTVKEDQVMQQNPPKFDKIEDMAMLTFLHEPAVLYNLKDRYGSWMIYTYSGLFCVTVNPYKWLPVYTPEVVAAYRGKKRSEAPPHIFSISDNAYQYMLTDRENQSILITGESGAGKTVNTKRVIQYFAVIAAIGDRSKKDQSPGKGTLEDQIIQANPALEAFGNAKTVRNDNSSRFGKFIRIHFGATGKLASADIETYLLEKSRVIFQLKAERDYHIFYQILSNKKPELLDMLLITNNPYDYAFISQGETTVASIDDAEELMATDNAFDVLGFTSEEKNSMYKLTGAIMHFGNMKFKLKQREEQAEPDGTEEADKSAYLMGLNSADLLKGLCHPQVKVGNEYVTKGQNVQQVIYATGALAKAVYERMFNWMVTRINATLETKQPRQYFIGVLDIAGFEIFDFNSFEQLCINFTNEKLQQFFNHHMFVLEQEEYKKEGIEWTFIDFGMDLQACIDLIEKPMGIMSILEEECMFPKATDMTFKAKLFDNHLGKSANFQKPRNIKGKPEAHFSLIHYAGIVDYNIIGWLQKNKDPLNETVVGLYQKSSLKLLSTLFANYAGADAPIEKGKGKAKKGSSFQTVSALHRENLNKLMTNLRSTHPHFVRCIIPNETKSPGVMDNPLVMHQLRCNGVLEGIRICRKGFPNRILYGDFRQRYRILNPAAIPEGQFIDSRKGAEKLLSSLDIDHNQYKFGHTKVFFKAGLLGLLEEMRDERLSRIITRIQAQSRGVLARMEYKKLLERR
chain 2: not shown
For the molecule B2, the figures for the Kd in assay [1] and in assay [2] were 63.2 ± 16.7 nM and 19.7 ± 6.2 nM, respectively.
